What was measured:
[1] = target: high-sensitive (HS) (α4)2(β2)3 nicotinic acetylcholine receptor (human) (UniProt P43681)
[2] = target: low-sensitive (LS) (α4)3(β2)2 nicotinic acetylcholine receptor (human) (UniProt P43681)
[3] = target: α3β2 nicotinic acetylcholine receptor (human) (UniProt P32297)

Measured: Maximal inhibition of ACh-evoked currents, % (single level fitted for all three datasets), two-electrode voltage clamp in X. laevis oocytes

Chain of UniProt P32297 (P32297 32-505, chain 1 of 2): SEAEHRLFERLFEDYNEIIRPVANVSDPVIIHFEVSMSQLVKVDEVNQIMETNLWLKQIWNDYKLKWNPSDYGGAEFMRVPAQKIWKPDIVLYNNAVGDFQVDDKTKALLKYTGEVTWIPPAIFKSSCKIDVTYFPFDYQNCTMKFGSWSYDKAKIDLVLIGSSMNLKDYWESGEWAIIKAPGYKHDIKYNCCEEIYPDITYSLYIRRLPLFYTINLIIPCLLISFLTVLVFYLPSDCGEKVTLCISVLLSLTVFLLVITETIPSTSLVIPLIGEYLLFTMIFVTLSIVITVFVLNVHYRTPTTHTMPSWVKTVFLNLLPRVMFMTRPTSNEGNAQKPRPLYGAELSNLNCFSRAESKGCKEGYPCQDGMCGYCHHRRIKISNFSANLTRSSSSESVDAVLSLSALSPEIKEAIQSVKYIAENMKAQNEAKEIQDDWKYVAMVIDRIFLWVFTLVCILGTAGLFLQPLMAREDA
Chain of UniProt P32297 (P17787 26-502, chain 2 of 2, further chain): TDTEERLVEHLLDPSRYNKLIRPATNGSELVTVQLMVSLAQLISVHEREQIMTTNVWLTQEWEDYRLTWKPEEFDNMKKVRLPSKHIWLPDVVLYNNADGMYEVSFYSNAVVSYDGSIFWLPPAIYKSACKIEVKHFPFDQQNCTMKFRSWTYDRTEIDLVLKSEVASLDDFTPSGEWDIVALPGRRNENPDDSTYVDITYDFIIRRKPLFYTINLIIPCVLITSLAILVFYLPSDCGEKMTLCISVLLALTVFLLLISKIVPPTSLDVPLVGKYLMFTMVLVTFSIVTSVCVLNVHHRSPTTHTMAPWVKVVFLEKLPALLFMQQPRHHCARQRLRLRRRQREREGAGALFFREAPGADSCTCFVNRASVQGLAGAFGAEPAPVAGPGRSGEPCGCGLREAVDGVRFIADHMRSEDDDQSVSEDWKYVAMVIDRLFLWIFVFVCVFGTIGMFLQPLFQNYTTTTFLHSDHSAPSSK

water-soluble recombinant analog of human prostate stem cell antigen (ws-PSCA) (domain or fragment)
31%: all assays above
